The values that follow come from paper doi:10.1101/2025.07.10.664194.

Experiment in all cases: mass photometry
Experiment [1] deals with PaAbpA (not stated (prefix Pa)).
For experiment [2], the target named is EcHna (E. coli (from the prefix Ec)).
In experiment [3] the target is BtHamA (not stated (prefix Bt)).
For experiment [4], the target named is PfOloA (not stated (prefix Pf)).
A further experiment concerns the target EcPD-T4-1 (E. coli).
A further experiment addresses EcPD-T4-8 (E. coli).

In experiment [1], PaAbpB (natural protein) had a stoichiometry N (AbpA:AbpB (1:1)) of 1.

As usually defined, the stoichiometry N is the number of molecules, sites or subunits per partner or assembly. In the case of EcHna (natural protein), the stoichiometry N in experiment [2] is 2.

The substance BtHamB (natural protein) yielded a stoichiometry N (HamA:HamB (1:1)) in experiment [3] of 1.

Substance PfOloB (natural protein) gave a stoichiometry N (OloA:OloB (2:2)) in experiment [4] of 1. On to EcPD-T4-1 (natural protein), for which, in the experiment with EcPD-T4-1 (E. coli), the stoichiometry N amounted to 2. In the case of EcPD-T4-8 (natural protein), the stoichiometry N with EcPD-T4-8 (E. coli) came to 4.
